Literature values as cited in patent publication US20030175285A1, “Molecule of pharmaceutical interest comprising at its n-terminal a glutamic acid or a glutamine in the form of a physiologically acceptable strong acid” (priority 2000, published 2003).
Ends that are not written are not given here.

What was measured:
[1] = system: osteoblasts and chondrocytes; details: trifluoroacetate form
[2] = system: melanoma; details: acetate form, patients suffering from a melanoma
[3] = acetate form

Substance	toxicity for cells in culture [1]	clinical antitumor effect [2]	required storage temperature [3]
Amylin: synthetic peptide in trifluoroacetate form (KCNTATCATQRLANFLVHSSNNFGAILSSTNVGSNTY; cysteine pairing not given here; also: trifluoroacetate salt; UniProt P10997 34-70, looked up)	toxic	–	–
EVDPIGHLY [MAGE-3]	–	tumor regression	−80 °C
Calcitonin	toxic	–	–
